Measured values: publication PMC8540335

Tests used:
[1] = target: NCp7 (1 Zn2+ per protein, as purified) (HIV-1, UniProt P04591 378-432); assay: SPR; 1 Zn2+ per protein; 50 RU RNA immobilized; SPR (Biacore X100, SA chip): 10 mM HEPES pH 7.4, 150 mM NaCl, 0.005% Tween-20, 25 C; settings: protein: recombinant; tags: 6xHis (pET28); label: 3'-biotin; hairpin
2NCp7 (NCp7 with 2 Zn2+) = 2NCp7 (NCp7 with 2 Zn2+) (HIV-1, UniProt P04591 378-432); assay: SPR; 2 Zn2+ per protein; 50 RU RNA immobilized; SPR (Biacore X100, SA chip): 10 mM HEPES pH 7.4, 150 mM NaCl, 0.005% Tween-20, 25 C; settings: protein: recombinant; tags: 6xHis (pET28); label: 3'-biotin; hairpin

GGACUAGCGGAGGCUAGUCC (structured_RNA) [SL3-RNA]
Kd [1]: 21.4 nM | Kd (2NCp7 (NCp7 with 2 Zn2+)): 3.15 nM
